Results: article doi:10.1101/133777 (bioRxiv, 2017)

Molecular target: 3HA-3FLAG-SPAK (mouse, UniProt Q9Z1W9 1-556)
Test: pull-down

B1: BioEase-FBXL5 (natural protein)
chain: MAPFPEEVDVFTAPHWRMKQLVGLYCDKLSKTNFSNNNDFRALLQSLYATFKEFKMHEQIENEYIIGLLQQRSQTIYNVHSDNKLSEMLSLFEKGLKNVKNEYEQLNYAKQLKERLEAFTRDFLPHMKEEEEVFQPMLMEYFTYEELKDIKKKVIAQHCSQKDTAELLRGLSLWNHAEERQKFFKYSVDEKSDKEAEVSEHSTGITHLPPEVMLSIFSYLNPQELCRCSQVSMKWSQLTKTGSLWKHLYPVHWARGDWYSGPATELDTEPDDEWVKNRKDESRAFHEWDEDADIDESEESAEESIAISIAQMEKRLLHGLIHNVLPYVGTSVKTLVLAYSSAVSSKMVRQILELCPNLEHLDLTQTDISDSAFDSWSWLGCCQSLRHLDLSGCEKITDVALEKISRALGILTSHQSGFLKTSTSKITSTAWKNKDITMQSTKQYACLHDLTNKGIGEEIDNEHPWTKPVSSENFTSPYVWMLDAEDLADIEDTVEWRHRNVESLCVMETASNFSCSTSGCFSKDIVGLRTSVCWQQHCASPAFAYCGHSFCCTGTALRTMSSLPESSAMCRKAARTRLPRGKDLIYFGSEKSDQETGRVLLFLSLSGCYQITDHGLRVLTLGGGLPYLEHLNLSGCLTITGAGLQDLVSACPSLNDEYFYYCDNINGPHADTASGCQNLQCGFRACCRSGE
modifications: biotin (biotinylated FBXL5, BioEase tag)
B1: binds.
